# According to the supplement of paper PMC7125110:
# ± gives the standard error. Fewer inactive variants are shown than the library holds.
# B1: glmS ribozyme (parent)
# chain: AUAAAAGCGCCAGAACUACAGAAAUGUAGUUGACGAGGAGGAGGUUUAUCGAAUUUUCGGCGGAUGCCUCCAAA
# Legend:
# Details in all cases: with glucosamine-6-phosphate
# [1] = variants of: B1; assay: self-cleavage kobs at 160 uM GlcN6P; higher = faster cleavage; RNA array
# In short: (§1)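 kcat and KM were obtained from weighted Michaelis–Menten fits across concentrations of kobs values. Those came from one- or two-exponential decay fits to per-tile medians normalised to baseline and to non-cleaving reference variants. The variants were barcoded ribozymes transcribed in situ by E. coli RNA polymerase on sequenced MiSeq chips and tracked through a hybridised Cy3 probe at 37 °C, with 40 μM to 10 mM glucosamine-6-phosphate in HEPES/KCl/Mg(OAc)2 buffer flowed in.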
# [2] = variants of: B1; assay: self-cleavage kobs at 640 uM GlcN6P; higher = faster cleavage; RNA array
# In short: as §1
# [3] = variants of: B1; assay: self-cleavage kobs at 2500 uM GlcN6P; higher = faster cleavage; RNA array
# In short: as §1
# [4] = variants of: B1; assay: self-cleavage kobs at 10000 uM GlcN6P; higher = faster cleavage; RNA array
# In short: as §1
Variant,self-cleavage kobs at 160 uM GlcN6P [1] [s⁻¹],self-cleavage kobs at 640 uM GlcN6P [2] [s⁻¹],self-cleavage kobs at 2500 uM GlcN6P [3] [s⁻¹],self-cleavage kobs at 10000 uM GlcN6P [4] [s⁻¹]
AUAAAAGCGCCAGAACUACAGAAAUGUAGAUGACGAGUAGGAGGUUUAUCGAAUUUUCGGCGGAGGCGUCCAAA [U30A G38U U65G C68G],0.000204 ± 4.9e-05,0.000139 ± 4.3e-05,0.000149 ± 4.5e-05,7.88e-05 ± 1.5e-05
AUAAAAGCGCCAGAACUACAGAAAUGUAGUUGACGAGGAGAAGGUUUAUCGAUGUUUCGGCGGAUGCCUCCAAA [G41A A53U U54G],0.000102 ± 3.4e-05,0.000241 ± 8.7e-05,0.000742 ± 0.0002,0.000285 ± 7.8e-05
AUAAAAUCCGCAGAACUACAGAAAUGUAGUUGACGAGGAGGAGGUUUAUCGACUUUUCGGUGGAUGCCUCCAAA [G7U G9C C10G A53C C61U],< 1e-05,–,< 1e-05,–
AUAAAAGCGUCAGAACUACAGAAAUGUAGUUGACGAGGAGGAGGUUUAUGGAAUUUUCGGCGGAUGCUUGCAAA [C10U C50G C68U C70G],0.000109 ± 4e-05,–,–,–
AUAAAAGGGCGAGAACUACAGAAAUGUAGUUGACGAGGAGGAGGUUUAUCGAAAUUUCGGCGGAUGCCUCCAAA [C8G C11G U54A],< 1e-05,–,< 1e-05,–
AUAAAAGCGCGAGAACUACAGAAAUGUAGUAGACGAGGAGGAGGUUGAUCGAAUUUUCGGCGGAUGCCUCCAAA [C11G U31A U47G],< 1e-05,–,–,–
AUAAAAGCGCGAGAACUACAGAAAUGUAGUUGACGAGGAGGAGGUGUAUCGAAUUUUCGGCAGAUGCCUCCAAA [C11G U46G G62A],< 1e-05,< 1e-05,< 1e-05,< 1e-05
AUAAAAGCGGCAGAACUACAGAAAUGUAGUUGACGAGGAAGAGGUUUAUCGAAUUUUCGGCGGAUGCCUACAAA [C10G G40A C70A],< 1e-05,< 1e-05,< 1e-05,< 1e-05
AUAAAAGUGCCAUAACUACAGAAAUGUAGUUGACGAGGAGGAAGUUUAUCGAAUUUUCGGGGGAUGCCUCCAAA [C8U G13U G43A C61G],< 1e-05,–,–,–
AUAAAAGCCCCAGAACUACAGAAAUGUAGUUGAGGAGGAGGAGGUUUAUCGAAUUUUCGGGGGAUGCCUCCAAA [G9C C34G C61G],< 1e-05,–,< 1e-05,< 1e-05
AUAAAAGCGCCAGAACUACAGAAAUGUAGUUGACGAGGACGAGGUUUAUCGAAUUUUCGUCGGAUGGCUCCAAA [G40C G60U C67G],< 1e-05,< 1e-05,< 1e-05,–
AUAAAAGCGCCAGAACUACAGAAAUGUAGUUGACAAGGAGGAUGUUUAUGGAAUUUUCGGCGGGUGCCUCCAAA [G35A G43U C50G A64G],< 1e-05,–,–,–
AUAAAAGCGCCUGAACUACAGAAAUGUAGUUGACGAGGAGGAGGUUUAUCGAAUUGGAGGCGGGUGCCUCCAAA [A12U U56G U57G C58A A64G],5.96e-05 ± 2.1e-05,0.000137 ± 2.4e-05,5.56e-05 ± 2.7e-05,–
AUAAAACCGCCAGAACUACAGAAAUGUAGUUGACGAGGAGGAGGUUUAUCGACUUUUCGGCGGAUGCCUCCAAA [G7C A53C],< 1e-05,< 1e-05,< 1e-05,–
AUAAAAGCGCCAGAACUACAGAAAUGUAGUUAACGAGGAGGUGGUUUAUCGAAUUUUCGGCGGAUGCCUCCAAA [G32A A42U],< 1e-05,< 1e-05,–,–
AUAAAAGCGCCAGAACUACAGAAAUGUAGUAGACGAGGAGGAGGUUUAUCGAAUUUUCGGCGGUUGCCUCCAAA [U31A A64U],< 1e-05,–,–,4.44e-05 ± 1.1e-05
AUAAAAGCGCCAGAACUACAGAAAUGUAGUUGACGACGAGGAGGUUUAUCGAAUUUUCGGCGGAAGCCUCCAAA [G37C U65A],< 1e-05,< 1e-05,–,–
AUAAAAGCGCCAGAACUACAGAAAUGUAGUUGACGAGGAGGAGGUUUAUCCAGUUUUCGGCGGAUGCCUCCAAA [G51C A53G],< 1e-05,< 1e-05,< 1e-05,–
AUAAAAGCGACAGAACUACAGAAAUGUAGUUGAAGAAGAGGAGGUCUAUCGAAUUUUCGGCGGAUGGCUCCAAA [C10A C34A G37A U46C C67G],< 1e-05,–,–,–
AUAAAAGAGCCAGAACUACAGAAAUGUACUUGACGAGGAGGAGGUUUAUUGAAUUUUCGGCGGAUGCCUCCAAA [C8A G29C C50U],< 1e-05,–,< 1e-05,–
AUAAAAGCGCCAGAACUACAGAAAUGUAGUUGACGAAGAGGCGGUCUAUCGAAUUUUCGGCGGAUGCCUCCAAA [G37A A42C U46C],< 1e-05,–,< 1e-05,–
AUAAAAGCGCCAGAACUACAGAAAUGUAGUUAACGAGGAGGAGCUUUAUCGAAUUUUCGGCGGAUACAUCCAAA [G32A G44C G66A C68A],< 1e-05,< 1e-05,< 1e-05,–
AUAAAAGCGCCAGAAUUACAGAAAUGUAGUUGACGAGGAGGAGGUUUAUCGAGCUUUCGGCGGAUGCCUCCAAA [C16U A53G U54C],0.000683 ± 0.00013,0.00193 ± 0.00028,0.00421 ± 0.00075,–
AUAAAAGCGCCAGAAAUACAGAAAUGUAGUUGACGAGGAGGAGGUUUAUCGGAUUUUCGGCGUAUUCCUCCAAA [C16A A52G G63U G66U],< 1e-05,< 1e-05,–,–
AUAAAAGCGCCAGAACUACAGAAAUGUAGUAGAAGAGGAGGAGGUUUAUCGAAUAUUCGGCGGAUGGCUCCAAA [U31A C34A U55A C67G],< 1e-05,< 1e-05,< 1e-05,–
AUAAAAGCGCCAGAAAUACAGAAAUGUAGUUGACGAGGAGGAGGUUUAUCGAAUUUUCGCCGGAUGGCUCCAAA [C16A G60C C67G],< 1e-05,–,< 1e-05,–
AUAAAAGCGCCAGAACUACAGAAAUGUAGUUGACGAGGAAGAGGUUUAUCGAAUUUUCGGUGGAUGCGUGGAAA [G40A C61U C68G C70G C71G],< 1e-05,< 1e-05,–,–
AUAAAAGCGCCAGAACUACAGAAAUGUAGUUGUCGUGGAGGAGGUUUAUCGAAUUUUCGGCGGAUGCCUCCAAA [A33U A36U],< 1e-05,< 1e-05,< 1e-05,< 1e-05
AUAAAAGCGCCAGAACUACAGAAAUGUAGAUGACGAGGAGGAGGUUUAUCGAACUUUCGGCGGAUGCCUCUAAA [U30A U54C C71U],0.000251 ± 5.9e-05,0.00109 ± 0.00025,0.00391 ± 0.0014,–
AUAAAAGCGCCAGAACUACAGAAAUGUAGUUGACGAGGAGGCCGUUUAUCGAAUUUUCGGCGGAUGCAUCAAAA [A42C G43C C68A C71A],< 1e-05,–,< 1e-05,–
